Test results from publication PMC6825169, “Extracellular vesicle integrins act as a nexus for platelet adhesion in cerebral microvessels” (Scientific Reports, 2019).
Bridges are numbered along the chain shown (N, C = ends).

Molecular target: integrin αvβ3 (mouse (endogenous in mouse middle …, UniProt P43406 31-1044; O54890 26-787)
Assay: cell-based or functional assay

integrin αvβ3 (mouse, sequence (P43406 31-1044, chain 1 of 2): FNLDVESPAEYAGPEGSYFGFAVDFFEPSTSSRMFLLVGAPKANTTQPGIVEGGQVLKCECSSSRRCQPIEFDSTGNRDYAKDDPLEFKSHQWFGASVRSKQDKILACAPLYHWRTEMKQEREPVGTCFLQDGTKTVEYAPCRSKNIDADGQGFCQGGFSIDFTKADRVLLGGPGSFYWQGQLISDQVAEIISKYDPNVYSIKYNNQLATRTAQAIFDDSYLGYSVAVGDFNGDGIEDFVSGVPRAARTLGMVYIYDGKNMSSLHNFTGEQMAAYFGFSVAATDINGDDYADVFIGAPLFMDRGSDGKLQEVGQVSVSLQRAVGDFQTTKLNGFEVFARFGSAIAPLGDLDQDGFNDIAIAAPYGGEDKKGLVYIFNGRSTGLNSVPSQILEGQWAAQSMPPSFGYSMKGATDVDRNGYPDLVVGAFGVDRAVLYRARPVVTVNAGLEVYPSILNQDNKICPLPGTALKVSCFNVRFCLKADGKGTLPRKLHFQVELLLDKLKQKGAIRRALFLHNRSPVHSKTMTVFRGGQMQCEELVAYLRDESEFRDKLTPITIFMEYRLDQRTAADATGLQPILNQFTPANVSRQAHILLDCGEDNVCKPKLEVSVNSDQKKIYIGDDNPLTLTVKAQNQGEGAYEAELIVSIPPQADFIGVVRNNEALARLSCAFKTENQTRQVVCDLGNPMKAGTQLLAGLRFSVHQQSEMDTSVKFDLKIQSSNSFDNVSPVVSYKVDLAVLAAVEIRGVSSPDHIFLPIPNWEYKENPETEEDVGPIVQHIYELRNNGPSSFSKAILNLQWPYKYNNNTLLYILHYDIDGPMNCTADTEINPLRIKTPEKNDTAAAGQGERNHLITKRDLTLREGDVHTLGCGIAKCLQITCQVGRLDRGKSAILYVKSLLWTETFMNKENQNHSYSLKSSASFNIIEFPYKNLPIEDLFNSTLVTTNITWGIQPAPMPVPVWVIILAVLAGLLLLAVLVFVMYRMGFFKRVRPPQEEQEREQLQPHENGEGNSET
integrin αvβ3 (mouse, sequence (O54890 26-787, chain 2 of 2): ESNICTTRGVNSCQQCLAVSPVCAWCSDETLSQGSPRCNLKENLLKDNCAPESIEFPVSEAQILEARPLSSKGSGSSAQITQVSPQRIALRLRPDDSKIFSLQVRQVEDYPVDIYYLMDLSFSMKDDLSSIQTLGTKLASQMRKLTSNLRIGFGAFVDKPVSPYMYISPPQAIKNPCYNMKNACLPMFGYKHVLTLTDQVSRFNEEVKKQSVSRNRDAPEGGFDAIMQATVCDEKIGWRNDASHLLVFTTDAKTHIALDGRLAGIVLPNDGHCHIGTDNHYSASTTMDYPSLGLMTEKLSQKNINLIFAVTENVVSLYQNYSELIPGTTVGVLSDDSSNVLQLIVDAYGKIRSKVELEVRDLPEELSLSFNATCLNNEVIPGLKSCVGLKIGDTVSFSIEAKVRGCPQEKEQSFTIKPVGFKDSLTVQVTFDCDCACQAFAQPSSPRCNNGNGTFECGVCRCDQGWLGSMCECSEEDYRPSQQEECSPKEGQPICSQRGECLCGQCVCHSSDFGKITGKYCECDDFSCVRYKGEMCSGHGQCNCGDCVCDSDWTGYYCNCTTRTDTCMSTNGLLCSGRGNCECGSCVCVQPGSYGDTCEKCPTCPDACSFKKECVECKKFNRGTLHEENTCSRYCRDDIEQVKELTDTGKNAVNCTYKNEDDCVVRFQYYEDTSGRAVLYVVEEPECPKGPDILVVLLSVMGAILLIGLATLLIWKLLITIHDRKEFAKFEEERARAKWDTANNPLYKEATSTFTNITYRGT

adherence of CFSE-labelled washed platelets to the luminal surface of the MCA under flow after cRGD-MPs, compared to cRGD peptide alone: 3 fold
B1: H-GCRGDC-NH2 (cRGD) (peptide)
peptide: H-GCRGDC-NH2
modifications: disulfide 2-6 (inferred)
